Data as given in patent US20080194482A1, “Selective Apac2 Receptor Peptide Agonists” (priority 2005, published 2008).
Square brackets hold non-standard residues; d marks the D form. Ends that are not written are not given here. Peptide text beside a SMILES is read from it. * marks the point of attachment. Orn = NCCC[C@H](N)C(=O)O; Hexanoyl = CCCCCC(=O)*; Aib = CC(C)(N)C(=O)O

T1: human PAC1 (Homo sapiens, UniProt P41586)
T1 construct: expressed in transfected cells
T1 sequence (P41586 21-468): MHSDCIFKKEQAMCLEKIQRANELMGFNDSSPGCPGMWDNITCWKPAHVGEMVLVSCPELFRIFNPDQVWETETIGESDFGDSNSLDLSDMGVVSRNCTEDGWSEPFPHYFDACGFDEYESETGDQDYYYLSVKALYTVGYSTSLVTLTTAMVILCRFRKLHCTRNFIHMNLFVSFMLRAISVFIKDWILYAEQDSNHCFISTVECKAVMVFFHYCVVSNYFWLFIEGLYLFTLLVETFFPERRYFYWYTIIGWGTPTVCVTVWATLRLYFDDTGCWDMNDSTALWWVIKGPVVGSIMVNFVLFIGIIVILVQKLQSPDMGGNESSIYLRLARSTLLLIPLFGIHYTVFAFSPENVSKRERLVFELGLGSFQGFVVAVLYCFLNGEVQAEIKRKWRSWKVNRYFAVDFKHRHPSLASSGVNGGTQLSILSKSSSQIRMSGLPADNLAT

T2: human VPAC1 (Homo sapiens, UniProt P32241)
T2 construct: expressed in transfected cells
T2 sequence (P32241 31-457): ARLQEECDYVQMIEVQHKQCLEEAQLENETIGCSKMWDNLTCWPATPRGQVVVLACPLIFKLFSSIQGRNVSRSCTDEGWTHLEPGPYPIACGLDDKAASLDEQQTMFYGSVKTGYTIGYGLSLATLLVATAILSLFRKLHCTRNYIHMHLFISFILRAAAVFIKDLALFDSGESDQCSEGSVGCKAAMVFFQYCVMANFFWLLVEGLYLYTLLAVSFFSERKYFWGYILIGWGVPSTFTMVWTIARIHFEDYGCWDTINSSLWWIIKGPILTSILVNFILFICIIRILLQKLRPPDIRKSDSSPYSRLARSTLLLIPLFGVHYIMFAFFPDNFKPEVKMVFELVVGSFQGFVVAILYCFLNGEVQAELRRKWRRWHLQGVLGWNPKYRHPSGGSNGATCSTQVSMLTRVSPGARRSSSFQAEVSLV

T3: human VPAC2 receptor (human, UniProt P41587 24-438)
T3 construct: whole, on cells; Stably expressed in a CHO-S cell line
T3 sequence (looked up): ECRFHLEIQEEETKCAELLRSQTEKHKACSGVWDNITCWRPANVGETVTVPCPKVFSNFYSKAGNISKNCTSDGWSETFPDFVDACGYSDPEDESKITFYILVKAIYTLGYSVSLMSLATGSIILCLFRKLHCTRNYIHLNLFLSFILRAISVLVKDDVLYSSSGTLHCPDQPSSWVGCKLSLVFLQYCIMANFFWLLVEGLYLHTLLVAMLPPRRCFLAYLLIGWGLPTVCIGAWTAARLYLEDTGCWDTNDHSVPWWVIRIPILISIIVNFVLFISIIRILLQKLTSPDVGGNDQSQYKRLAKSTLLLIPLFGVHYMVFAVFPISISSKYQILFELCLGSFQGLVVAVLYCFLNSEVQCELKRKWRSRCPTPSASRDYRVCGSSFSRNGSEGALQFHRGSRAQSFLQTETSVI

T4: rat VPAC1 receptor (rat, UniProt P30083 31-459)
T4 sequence (looked up): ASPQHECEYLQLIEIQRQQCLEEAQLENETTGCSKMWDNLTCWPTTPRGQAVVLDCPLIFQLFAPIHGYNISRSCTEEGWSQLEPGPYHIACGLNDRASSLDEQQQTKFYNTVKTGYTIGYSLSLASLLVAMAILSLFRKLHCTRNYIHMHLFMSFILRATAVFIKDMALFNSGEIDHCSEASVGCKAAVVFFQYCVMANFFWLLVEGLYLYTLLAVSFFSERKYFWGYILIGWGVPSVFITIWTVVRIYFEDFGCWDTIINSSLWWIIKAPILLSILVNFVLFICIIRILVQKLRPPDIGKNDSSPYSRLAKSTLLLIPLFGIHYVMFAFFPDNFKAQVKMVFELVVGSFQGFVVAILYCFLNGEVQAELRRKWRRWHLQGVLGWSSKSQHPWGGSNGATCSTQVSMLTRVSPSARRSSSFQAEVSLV

T5: rat VPAC2 receptor (rat, UniProt P35000 23-437)
T5 sequence (looked up): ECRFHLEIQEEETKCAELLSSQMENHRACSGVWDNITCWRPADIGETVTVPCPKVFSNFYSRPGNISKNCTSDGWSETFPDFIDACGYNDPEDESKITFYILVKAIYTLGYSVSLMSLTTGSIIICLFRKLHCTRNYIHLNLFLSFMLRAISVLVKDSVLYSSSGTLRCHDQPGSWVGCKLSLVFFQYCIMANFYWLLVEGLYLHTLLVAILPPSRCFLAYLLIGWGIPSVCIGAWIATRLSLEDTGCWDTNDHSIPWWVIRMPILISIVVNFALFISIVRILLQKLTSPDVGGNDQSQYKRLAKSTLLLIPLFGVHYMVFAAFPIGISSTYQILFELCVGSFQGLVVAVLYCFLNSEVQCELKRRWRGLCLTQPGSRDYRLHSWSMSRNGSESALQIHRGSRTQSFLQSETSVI

B1: VPAC2 receptor peptide agonist P394 (peptide)
peptide: HSDAVFTDQYTXLRXQLAAXXYLQSIXXGGPSSGAPPPS
modifications: N-terminal hexanoyl (C6); Tyr(OMe) at 10; Orn at 12, 21, 27 and 28; Aib at 15 and 20

What was measured:
[1] = Rat serum stability (activity remaining, CHO-VPAC2 DiscoveRx read-out); assay type: in vitro ADME
Protocol: The rat serum is stored at 4° C. until use and is used within two weeks. […] The aliquot is stored with aprotinin at 4° C. The aliquot is stored without aprotinin at 37° C. The aliquots are incubated overnight. […] The plate(s) are washed with cells twice in incubation buffer. The plates are allowed to hold 50 μL incubation media per well for 15 minutes. 50 μL solution per well is transferred to the cells from the plate prepared with 11 serial 5× dilutions of peptide for the 4° C. and 37° C. aliquot for each peptide studied, using the maximal concentrations that are indicated by the primary screen, in duplicate. This step dilutes the peptide concentration by a factor of two. The cells are incubated at room temperature for 30 minutes. […] The cells are incubated on the shaker (300 rpm) for 1 hour. Normal procedure with the DiscoveRx kit is followed. cAMP standards are included in column 12. EC50 values are determined from the cAMP assay data.

human PAC1 = biological target: T1, human PAC1; test: Filter binding assay, 125I-labeled PACAP-27 tracer, PAC1 membranes; conditions: read-out: Human PAC1 Receptor Binding (IC50; nM)
human VPAC1 = biological target: T2, human VPAC1; test: Filter binding assay, 125I-labeled VIP tracer, VPAC1 membranes; conditions: read-out: Human VPAC1 Receptor Binding (IC50; nM)
human VPAC2 receptor [2] = biological target: T3, human VPAC2 receptor; test: filter binding, human VPAC2 membranes, competition with 125I-VIP;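 also: assay plate incubated 1 h with shaking, then filtered, with filter-retained counts measured after adding scintillant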
Protocol: The filled plate is incubated for 1 hour with shaking.
The transfer from assay plate to filter plate is conducted. The blocking buffer is aspirated by vacuum filtration and washed two times with flush buffer. 90 μL is transferred from the assay plate to the filter plate. The 90 μL transferred from assay plate is aspirated and washed three times with 200 μL flush buffer. The plastic support is removed. It is dried for 1 hour at 60° C. 30 μL Microscint is added. The count is performed.

rat VPAC1 receptor = biological target: T4, rat VPAC1 receptor; test: cell-based or functional assay
rat VPAC2 receptor = biological target: T5, rat VPAC2 receptor; test: cell-based or functional assay
human VPAC2 receptor [3] = biological target: T3, human VPAC2 receptor; test: cell-based or functional assay

Molecule	Rat Serum Stability (estimated purity in % after overnight incub.) [1]	IC50 (human PAC1)	IC50 (human VPAC1)	IC50 (human VPAC2 receptor [2])	Rat VPAC1 Receptor: DiscoveRx (EC50; nM), cAMP generation (rat VPAC1 receptor)	Rat VPAC2 Receptor: DiscoveRx (EC50; nM), cAMP generation (rat VPAC2 receptor)	Human VPAC2 Receptor: Alpha Screen (EC50; nM), cAMP generation (human VPAC2 receptor [3])
CCCCCC(=O)N[C@@H](Cc1c[nH]cn1)C(=O)N[C@@H](CO)C(=O)N[C@@H](CC(=O)O)C(=O)N[C@@H](C)C(=O)N[C@H](C(=O)N[C@@H](Cc1ccccc1)C(=O)N[C@H](C(=O)N[C@@H](CC(=O)O)C(=O)N[C@@H](CC(N)=O)C(=O)N[C@@H](Cc1ccc(OC)cc1)C(=O)N[C@H](C(=O)N[C@@H](CCCNC(=N)N)C(=O)N[C@@H](CC(C)C)C(=O)N[C@@H](CCCNC(=N)N)C(=O)NC(C)(C)C(=O)N[C@@H](CCC(N)=O)C(=O)N[C@H](C(=O)N[C@@H](C)C(=O)N[C@@H](C)C(=O)NC(C)(C)C(=O)N[C@@H](CCCCN)C(=O)N[C@@H](Cc1ccc(O)cc1)C(=O)N[C@@H](CC(C)C)C(=O)N[C@@H](CCC(N)=O)C(=O)N[C@@H](CO)C(=O)N[C@H](C(=O)N[C@@H](CCCCN)C(=O)N[C@@H](CC(N)=O)C(=O)N[C@@H](CCCCN)C(=O)N[C@@H](CCCNC(=N)N)C(=O)N[C@@H](Cc1ccc(O)cc1)C(=O)NCC(=O)NCC(=O)N1CCC[C@H]1C(=O)N[C@@H](CO)C(=O)N[C@@H](CO)C(=O)NCC(=O)N[C@@H](C)C(=O)N1CCC[C@H]1C(=O)N1CCC[C@H]1C(=O)N1CCC[C@H]1C(=O)N[C@@H](CO)C(=O)O)[C@@H](C)CC)C(C)C)[C@@H](C)O)[C@@H](C)O)C(C)C [Agonist P358]	13.43%						
CCCCCC(=O)N[C@@H](Cc1c[nH]cn1)C(=O)N[C@@H](CO)C(=O)N[C@@H](CCC(=O)O)C(=O)N[C@@H](C)C(=O)N[C@H](C(=O)N[C@@H](Cc1ccccc1)C(=O)N[C@H](C(=O)N[C@@H](CCC(=O)O)C(=O)N[C@@H](CC(N)=O)C(=O)N[C@@H](Cc1ccc(O)cc1)C(=O)N[C@H](C(=O)N[C@@H](CCCN)C(=O)N[C@@H](CC(C)C)C(=O)N[C@@H](CCCNC(=N)N)C(=O)NC(C)(C)C(=O)N[C@@H](CCC(N)=O)C(=O)N[C@H](C(=O)N[C@@H](C)C(=O)N[C@@H](C)C(=O)NC(C)(C)C(=O)N[C@@H](CCCCN)C(=O)N[C@@H](Cc1ccc(O)cc1)C(=O)N[C@@H](CC(C)C)C(=O)N[C@@H](CCC(N)=O)C(=O)N[C@@H](CO)C(=O)N[C@H](C(=O)N[C@@H](CCCN)C(=O)N[C@@H](CC(N)=O)C(=O)N[C@@H](CCCN)C(=O)NCC(=O)NCC(=O)N1CCC[C@H]1C(=O)N[C@@H](CO)C(=O)N[C@@H](CO)C(=O)NCC(=O)N[C@@H](C)C(=O)N1CCC[C@H]1C(=O)N1CCC[C@H]1C(=O)N1CCC[C@H]1C(=O)N[C@@H](CO)C(=O)O)[C@@H](C)CC)C(C)C)[C@@H](C)O)[C@@H](C)O)C(C)C [Agonist P362] (Hexanoyl-HSEAVFTENYT[Orn]LR[Aib]QVAA[Aib]KYLQSI[Orn]N[Orn]GGPSSGAPPPS-OH; C-terminus assumed)	82.77%	> 25000 nM	> 3000 nM				
CCCCCC(=O)N[C@@H](Cc1c[nH]cn1)C(=O)N[C@@H](CO)C(=O)N[C@@H](CC(=O)O)C(=O)N[C@@H](C)C(=O)N[C@H](C(=O)N[C@@H](Cc1ccccc1)C(=O)N[C@H](C(=O)N[C@@H](CC(=O)O)C(=O)N[C@@H](CC(N)=O)C(=O)N[C@@H](Cc1ccc(O)cc1)C(=O)N[C@H](C(=O)N[C@@H](CCC(N)=O)C(=O)N[C@@H](CC(C)C)C(=O)N[C@@H](CCCNC(=N)N)C(=O)NC(C)(C)C(=O)N[C@@H](CCC(N)=O)C(=O)N[C@H](C(=O)N[C@@H](C)C(=O)N[C@@H](C)C(=O)NC(C)(C)C(=O)N[C@@H](CCCCN)C(=O)N[C@@H](Cc1ccc(O)cc1)C(=O)N[C@@H](CC(C)C)C(=O)N[C@@H](CCC(N)=O)C(=O)N[C@@H](CO)C(=O)N[C@H](C(=O)N[C@@H](CCCN)C(=O)N[C@@H](CC(N)=O)C(=O)N[C@@H](CCCN)C(=O)NCC(=O)NCC(=O)N1CCC[C@H]1C(=O)N[C@@H](CO)C(=O)N[C@@H](CO)C(=O)NCC(=O)N[C@@H](C)C(=O)N1CCC[C@H]1C(=O)N1CCC[C@H]1C(=O)N1CCC[C@H]1C(=O)N[C@@H](CO)C(=O)O)[C@@H](C)CC)C(C)C)[C@@H](C)O)[C@@H](C)O)C(C)C [Agonist P368] (Hexanoyl-HSDAVFTDNYTQLR[Aib]QVAA[Aib]KYLQSI[Orn]N[Orn]GGPSSGAPPPS-OH; C-terminus assumed)	99.82%	> 25000 nM	> 3000 nM				
Hexanoyl-HSDAVFTDNYTRLLAKLALQKYLQSI[Orn]N[Orn]GGPSSGAPPPS [VPAC2 receptor peptide agonist P370]				0.8 nM	0.05 nM	0.05 nM	0.23 nM
B1				0.41 nM	0.48 nM	0.03 nM	0.11 nM
